In patent US20250076311A1 (Chugai, published 2025):
Changes are numbered by the printed parent chain. Names may count otherwise.

Tests used:
[1] = target: T1, cynomolgus monkey FcγRIIIaS extracellular domain, His-tagged (cynomolgus monkey, UniProt Q8SPW2 21-206 at identity 1.00)); assay: SPR (Biacore), 25C, KD of SG1 / KD of variant
T1 construct: also called cyno FcgRIIIaS
T1 chain: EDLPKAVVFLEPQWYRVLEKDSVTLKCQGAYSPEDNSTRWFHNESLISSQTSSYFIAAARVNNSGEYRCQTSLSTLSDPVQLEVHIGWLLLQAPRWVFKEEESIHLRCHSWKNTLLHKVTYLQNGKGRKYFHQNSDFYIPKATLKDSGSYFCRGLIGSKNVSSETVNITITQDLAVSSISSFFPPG

[2] = target: T2, cynomolgus monkey FcγRIIb extracellular domain, His-tagged (cynomolgus monkey); assay: SPR (Biacore), 25C, KD of SG1 / KD of variant
T2 construct: also called cyno FcgRIIb
T2 chain: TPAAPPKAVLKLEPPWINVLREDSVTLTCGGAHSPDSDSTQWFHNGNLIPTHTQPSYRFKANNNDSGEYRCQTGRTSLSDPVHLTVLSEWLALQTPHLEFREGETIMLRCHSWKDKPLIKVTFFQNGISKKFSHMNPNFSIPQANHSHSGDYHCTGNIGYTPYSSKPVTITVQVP

[3] = target: T3, cynomolgus monkey FcγRIIa3 extracellular domain, His-tagged (cynomolgus monkey); assay: SPR (Biacore), 25C, KD of SG1 / KD of variant
T3 construct: also called cyno FcgRIIa3
T3 chain: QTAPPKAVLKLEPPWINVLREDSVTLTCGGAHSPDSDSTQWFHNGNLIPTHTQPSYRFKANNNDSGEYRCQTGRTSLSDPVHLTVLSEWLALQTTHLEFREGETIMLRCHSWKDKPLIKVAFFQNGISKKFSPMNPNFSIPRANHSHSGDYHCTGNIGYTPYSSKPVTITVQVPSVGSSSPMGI

[4] = target: T4, human FcγRIIb extracellular domain, His-tagged (human, UniProt P31994 43-217); assay: SPR (Biacore), 25C, KD of SG1 / KD of variant
T4 construct: also called human FcgRIIb
T4 sequence: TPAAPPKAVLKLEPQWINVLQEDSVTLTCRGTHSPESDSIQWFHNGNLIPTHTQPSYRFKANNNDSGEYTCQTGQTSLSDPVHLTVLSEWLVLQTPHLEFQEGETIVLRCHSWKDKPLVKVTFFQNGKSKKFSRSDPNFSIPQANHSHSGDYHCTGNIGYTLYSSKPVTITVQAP

[5] = target: T5, cynomolgus monkey FcγRIIa2 extracellular domain, His-tagged (cynomolgus monkey); assay: SPR (Biacore), 25C, KD of SG1 / KD of variant
T5 construct: also called cyno FcgRIIa2
T5 chain: T3 chain with I127K, K130N, P133H, R142Q

[6] = target: T6, human FcγRIIaH extracellular domain, His-tagged (human, UniProt P12318 34-217); assay: SPR (Biacore), 25C, KD of SG1 / KD of variant
T6 construct: also called human FcgRIIaH; FcγRIIa type H
T6 sequence: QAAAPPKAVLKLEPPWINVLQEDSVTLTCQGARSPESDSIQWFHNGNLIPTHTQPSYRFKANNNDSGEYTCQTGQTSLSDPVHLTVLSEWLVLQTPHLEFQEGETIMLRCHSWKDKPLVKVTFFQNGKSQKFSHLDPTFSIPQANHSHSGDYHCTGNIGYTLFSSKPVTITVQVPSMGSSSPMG

[7] = target: T7, cynomolgus monkey FcγRIIa1 extracellular domain, His-tagged (cynomolgus monkey); assay: SPR (Biacore), 25C, KD of SG1 / KD of variant
T7 construct: also called cyno FcgRIIa1
T7 chain: T3 chain with T95P, A121T, S128A, P133H, N135D

[8] = target: T8, human FcγRIIaR extracellular domain, His-tagged (human, UniProt P12318 34-217); assay: SPR (Biacore), 25C, KD of SG1 / KD of variant
T8 construct: also called human FcgRIIaR; FcγRIIa type R
T8 chain: T6 sequence with H134R

[9] = target: T9, human FcγRIIIaV extracellular domain, His-tagged (human, UniProt P08637 17-208); assay: SPR (Biacore), 25C, KD of SG1 / KD of variant
T9 construct: also called human FcgRIIIaV
T9 sequence (P08637 17-208 F176V): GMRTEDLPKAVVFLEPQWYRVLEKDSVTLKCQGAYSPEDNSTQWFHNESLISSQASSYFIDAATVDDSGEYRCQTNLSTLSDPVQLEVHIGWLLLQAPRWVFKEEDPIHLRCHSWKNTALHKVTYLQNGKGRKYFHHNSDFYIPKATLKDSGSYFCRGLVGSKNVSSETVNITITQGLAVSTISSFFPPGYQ

[10] = target: T1, cynomolgus monkey FcγRIIIaS …; assay: SPR (Biacore), 25C, FcgR bound per antibody captured
Protocol: (§1) In the next step, cross-reactivity of these substitutions to cynoFcγRs was evaluated.
(§2) The value of the amount of FcγR binding was obtained by dividing the amount of FcγR bound by the amount of each antibody captured.

[11] = target: T2, cynomolgus monkey FcγRIIb extracellular …; assay: as above
Protocol: as §1, §2

[12] = target: T3, cynomolgus monkey FcγRIIa3 …; assay: as above
Protocol: as §1, §2

[13] = target: T5, cynomolgus monkey FcγRIIa2 …; assay: as above
Protocol: as §1, §2

[14] = target: T7, cynomolgus monkey FcγRIIa1 …; assay: as above
Protocol: as §1, §2

[15] = target: T5, cynomolgus monkey FcγRIIa2 …; assay: SPR (Biacore), 25C, antibody captured, FcgR as analyte
Protocol: (§3) The kinetic analysis of interactions between these antibodies and FcγR was carried out using BIACORE® T200 or BIACORE® 4000 (GE Healthcare). HBS-EP+ (GE Healthcare) was used as the running buffer, and the measurement temperature was set to 25° C. […] After the measurement, the antibody captured on the chip was washed off by allowing reaction with 10 mM glycine-HCl, pH1.5 and 25 mM NaOH so that the chip was regenerated and used repeatedly. The sensorgrams obtained as measurement results were analyzed by the 1:1 Langmuir binding model using the BIACORE® Evaluation Software to calculate the binding rate constant ka (L/mol/s) and dissociation rate constant kd (1/s), and the dissociation constant KD (mol/L) was calculated from these values. […] Regarding such interactions, KD values were calculated using the following 1:1 binding model described in BIACORE® T100 Software Handbook BR1006-48 Edition AE.

[16] = target: T8, human FcγRIIaR extracellular domain, …; assay: as above
Protocol: as §3

[17] = target: T9, human FcγRIIIaV extracellular domain, …; assay: as above
Protocol: as §3

[18] = target: T10, human FcγRIIIaV extracellular domain, His-tagged (human, UniProt P08637 17-208); assay: SPR (BIACORE), antibody captured on chip, FcγR as analyte, 25 C; KD of SG1 divided by KD of the variant
T10 construct: also called human FcγRIIIa (V158 allotype); FcgRIIIaV; not shown: His-tag added to the C-terminus
Protocol: as §3
T10 sequence (P08637 17-208 F176V): as above

[19] = target: T11, cynomolgus monkey FcγRIIa1 extracellular domain with C-terminal His-tag (cynomolgus monkey); assay: SPR (Biacore), KD of SG1 divided by KD of variant
T11 construct: also called cyno FcgRIIa1; cynoFcγRIIa1
T11 chain: T3 chain with T95P, A121T, S128A, P133H, N135D

[20] = target: T12, human FcγRIIaR extracellular domain with C-terminal His-tag (human, UniProt P12318 34-217); assay: SPR (Biacore), KD of SG1 divided by KD of variant
T12 construct: also called human FcgRIIaR; FcγRIIa (type R)
T12 chain: T6 sequence with H134R

[21] = target: T13, human FcγRIIIaV extracellular domain with C-terminal His-tag (human, UniProt P08637 17-208); assay: SPR (Biacore), KD of SG1 divided by KD of variant
T13 construct: also called human FcgRIIIaV
T13 sequence (P08637 17-208 F176V): as above

[22] = target: T14, cynomolgus monkey FcγRIIa3 extracellular domain with C-terminal His-tag (cynomolgus monkey); assay: SPR (Biacore), KD of SG1 divided by KD of variant
T14 construct: also called cyno FcgRIIa3; cynoFcγRIIa3
T14 chain: T3 chain

[23] = target: T15, human FcγRIIb extracellular domain with C-terminal His-tag (human, UniProt P31994 43-217); assay: SPR (Biacore), KD of SG1 divided by KD of variant
T15 construct: also called human FcgRIIb
T15 sequence: T4 sequence

[24] = target: T16, cynomolgus monkey FcγRIIIaS extracellular domain with C-terminal His-tag (cynomolgus monkey, UniProt Q8SPW2 21-206 at identity 1.00)); assay: SPR (Biacore), KD of SG1 divided by KD of variant
T16 construct: also called cyno FcgRIIIaS; cynoFcγRIIIaS
T16 chain: T1 chain

[25] = target: T17, human FcγRIIaH extracellular domain with C-terminal His-tag (human, UniProt P12318 34-217); assay: SPR (Biacore), antibody captured, FcgR as analyte
T17 construct: also called human FcgRIIaH; FcγRIIa (type H)
T17 sequence: T6 sequence

[26] = target: T12, human FcγRIIaR extracellular domain …; assay: SPR (Biacore), antibody captured, FcgR as analyte
[27] = target: T11, cynomolgus monkey FcγRIIa1 …; assay: SPR (Biacore), antibody captured, FcgR as analyte

B1: MS1032LO06-SG1 (antibody, human IgG1, kappa)
heavy: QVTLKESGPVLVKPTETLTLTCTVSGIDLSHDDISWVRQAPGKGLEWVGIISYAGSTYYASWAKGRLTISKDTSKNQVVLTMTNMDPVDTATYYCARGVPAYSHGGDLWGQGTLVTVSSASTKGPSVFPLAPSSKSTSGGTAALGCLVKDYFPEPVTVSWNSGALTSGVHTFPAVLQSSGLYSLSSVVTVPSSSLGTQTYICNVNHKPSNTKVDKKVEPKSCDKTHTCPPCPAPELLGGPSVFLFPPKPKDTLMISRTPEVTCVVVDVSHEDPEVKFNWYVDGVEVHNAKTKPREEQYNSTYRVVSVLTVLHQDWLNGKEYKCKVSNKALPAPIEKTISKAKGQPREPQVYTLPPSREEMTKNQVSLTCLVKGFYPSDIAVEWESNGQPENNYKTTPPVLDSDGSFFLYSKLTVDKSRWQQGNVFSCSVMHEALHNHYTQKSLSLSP
light: DIVMTQSPATLSLSPGERATLSCTSSQSVYHANWLSWFQQKPGQPPKLLIYWASTLAYGVPSRFSGSGSGTDFTLTISSLQPEDAATYYCAGGYGGGRYAFGQGTKVEIKRTVAAPSVFIFPPSDEQLKSGTASVVCLLNNFYPREAKVQWKVDNALQSGNSQESVTEQDSKDSTYSLSSTLTLSKADYEKHKVYACEVTHQGLSSPVTKSFNRGEC
notes: Heavy constant region SG1, light constant region SK1; also called M103205H795-SG1
KD fold (SG1 = 1) [1]: 1
KD fold (SG1 = 1) [2]: 1
KD fold (SG1 = 1) [3]: 1
KD fold (SG1 = 1) [4]: 1
KD fold (SG1 = 1) [5]: 1
KD fold (SG1 = 1) [6]: 1
KD fold (SG1 = 1) [7]: 1
KD fold (SG1 = 1) [8]: 1
KD fold (SG1 = 1) [9]: 1
Binding to cynoFcgRs (SG1 = 100) [10]: 100
Binding to cynoFcgRs (SG1 = 100) [11]: 100
Binding to cynoFcgRs (SG1 = 100) [12]: 100
Binding to cynoFcgRs (SG1 = 100) [13]: 100
Binding to cynoFcgRs (SG1 = 100) [14]: 100
Kd [15]: 52000 nM
Kd [16]: 14000 nM
Kd [17]: 1200 nM

B2: M103205H795-MY318/M103202L889-SK1 (antibody, human IgG1, kappa, name in EU numbering)
heavy: QVTLKESGPVLVKPTETLTLTCTVSGIDLSHDDISWVRQAPGKGLEWVGIISYAGSTYYASWAKGRLTISKDTSKNQVVLTMTNMDPVDTATYYCARGVPAYSHGGDLWGQGTLVTVSSASTKGPSVFPLAPSSKSTSGGTAALGCLVKDYFPEPVTVSWNSGALTSGVHTFPAVLQSSGLYSLSSVVTVPSSSLGTQTYICNVNHKPSNTKVDKKVEPKSCDKTHTCPPCPAPELLLGPSVFLFPPKPKDTLMISRTPEVTCVVVDVSEEDPEVKFNWYVDGVEVHNAKTKPREEQYNSTYRVVSVLTVLHQDWLNGKEYKCKVSNTALPKPIEKTISKAKGQPREPQVYTLPPSREEMTKNQVSLTCLVKGFYPSDIAVEWESNGQPENNYKTTPMVLDSDGSFFLYSKLTVDKSRWQQGNVFSCSVMHEALHNHYTQKSLSLSP
light: B1 light
notes: expressed with M103202L889-SK1 as light chain
KD fold for humanFcgRs (SG1 = 1) [18]: 0.09 fold

B3: M103205H795-MY388 (second row so labelled: G236T/S239I/H268D/A330K) / M103202L889-SK1 (antibody, human IgG1, kappa, name in EU numbering)
heavy: B2 heavy with L238T, S241I, E270D, T328K, M398P
light: B1 light
notes: The label MY388 is printed for two different variants; also called MY388 (second of two rows with this label)
KD fold (SG1 = 1) [19]: 1.9 fold

B4: M103205H795-MY520 / M103202L889-SK1 (antibody, human IgG1, kappa, name in EU numbering)
heavy: B2 heavy with P234D, L238T, S241V, E270D, Q297L, T328K, M398P
light: B1 light
KD fold (SG1 = 1) [20]: 3.2 fold
KD fold (SG1 = 1) [21]: 0.23 fold
KD fold (SG1 = 1) [22]: 8.1 fold
KD fold (SG1 = 1) [23]: 3.3 fold

B5: M103205H795-MY528 / M103202L889-SK1 (antibody, human IgG1, kappa, name in EU numbering)
heavy: B2 heavy with L236W, L238T, E270D, T328K, M398P
light: B1 light
KD fold (SG1 = 1) [24]: 0.18 fold
Kd [25]: 350 nM
Kd [26]: 560 nM

B6: M103205H795-MY530 / M103202L889-SK1 (antibody, human IgG1, kappa, name in EU numbering)
heavy: B2 heavy with L238T, E270D, M398P
light: B1 light
KD fold (SG1 = 1) [19]: 2.5 fold
KD fold (SG1 = 1) [23]: 2.9 fold
Kd [27]: 1300 nM
